According to patent US20120294796A1 (MacroGenics, published 2012):

T1: human B7-H3 on the surface of human cell lines (human, UniProt Q5ZPR3 29-534)
T1 construct: whole, on cells; also called B7-H3 present on the surface of cancer cells
T1 sequence (looked up): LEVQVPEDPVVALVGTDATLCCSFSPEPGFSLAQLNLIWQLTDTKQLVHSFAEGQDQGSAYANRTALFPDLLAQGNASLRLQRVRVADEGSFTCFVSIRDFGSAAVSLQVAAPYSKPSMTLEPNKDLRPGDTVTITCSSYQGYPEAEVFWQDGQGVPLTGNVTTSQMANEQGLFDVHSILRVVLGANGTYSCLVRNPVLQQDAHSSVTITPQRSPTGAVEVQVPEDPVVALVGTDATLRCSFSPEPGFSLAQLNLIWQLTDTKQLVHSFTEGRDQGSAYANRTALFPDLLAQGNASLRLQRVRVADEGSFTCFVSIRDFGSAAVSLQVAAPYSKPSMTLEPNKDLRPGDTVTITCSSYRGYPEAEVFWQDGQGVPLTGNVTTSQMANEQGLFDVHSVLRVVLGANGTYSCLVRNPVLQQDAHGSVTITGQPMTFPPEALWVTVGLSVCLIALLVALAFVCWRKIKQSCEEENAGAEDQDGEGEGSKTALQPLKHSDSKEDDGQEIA

B1: PRCA157 (antibody, IgG1, V domains shown)
VH: EVQQVESGGDLVKPGGSLKLSCAASGFTFSSYGMSWVRQTPDKRLEWVATINSGGSNTYYPDSLKGRFTISRDNAKNTLYLQMRSLKSEDTAMYYCARHDGGAMDYWGQGTSVTVSS
VL: DIQMTQSPASLSVSVGETVTITCRASESIYSYLAWYQQKQGKSPQLLVYNTKTLPEGVPSRFSGSGSGTQFSLKINSLQPEDFGRYYCQHHYGTPPWTFGGGTNLEIK
B2: BRCA84D (antibody, IgG1, V domains shown)
VH: DVQLVESGGGLVQPGGSRKLSCAASGFTFSSFGMHWVRQAPEKGLEWVAYISSDSSAIYYADTVKGRFTISRDNPKNTLFLQMTSLRSEDTAMYYCGRGRENIYYGSRLDYWGQGTTLTVSS
VL: DIAMTQSQKFMSTSVGDRVSVTCKASQNVDTNVAWYQQKPGQSPKALIYSASYRYSGVPDRFTGSGSGTDFTLTINNVQSEDLAEYFCQQYNNYPFTFGSGTKLEIK
B3: BRCA69D (antibody, IgG1, V domains shown)
VH: QVQLQQSGAELARPGASVKLSCKASGYTFTSYWMQWVKQRPGQGLEWIGTIYPGDGDTRYTQKFKGKATLTADKSSSTAYMQLSSLASEDSAVYYCARRGIPRLWYFDVWGAGTTVTVSS
VL: DIQMTQTTSSLSASLGDRVTISCRASQDISNYLNWYQQKPDGTVKLLIYYTSRLHSGVPSRFSGSGSGTDYSLTIDNLEQEDIATYFCQQGNTLPPTFGGGTKLEIK
notes: also called BRCA69A (probable misprint)

Each binder was assayed against T1, human B7-H3 on the surface of human … (assay: FACS, fluorescein-labeled mAb, A549 cells).
With B1 the “FACS MFI” value was 44.3 MFI. For B2, the “FACS MFI” value was 25 MFI. B3 was tested, and the “FACS MFI” value was 60.5 MFI.

Each binder was assayed against T1, human B7-H3 on the surface of human … (assay: FACS, fluorescein-labeled mAb, LNCaP cells).
For B1, the “FACS MFI” value was 16.4 MFI. With B2 the “FACS MFI” value was 16.4 MFI. In the case of B3, the “FACS MFI” value is reported as 92.4 MFI.

What follows are binders tested against T1, human B7-H3 on the surface of human … (assay: FACS, fluorescein-labeled mAb, A498 cells).
B1 was tested, and the “FACS MFI” value was 58.8 MFI. For B2, the “FACS MFI” value was 30.6 MFI. B3 was tested, and the “FACS MFI” value was 84.1 MFI.
